Target: AGO2 (Argonaute 2) (UniProt Q9UKV8)
Experiment: single-molecule FRET
Settings: guide 5' phosphate; internal amino-C6 U18; single-molecule FRET on immobilized biotinylated target RNA; 100 nM AUF1 where added; buffer, salt, pH and temperature not in the material

Sequence of AGO2 (Argonaute 2) (Q9UKV8 whole entry): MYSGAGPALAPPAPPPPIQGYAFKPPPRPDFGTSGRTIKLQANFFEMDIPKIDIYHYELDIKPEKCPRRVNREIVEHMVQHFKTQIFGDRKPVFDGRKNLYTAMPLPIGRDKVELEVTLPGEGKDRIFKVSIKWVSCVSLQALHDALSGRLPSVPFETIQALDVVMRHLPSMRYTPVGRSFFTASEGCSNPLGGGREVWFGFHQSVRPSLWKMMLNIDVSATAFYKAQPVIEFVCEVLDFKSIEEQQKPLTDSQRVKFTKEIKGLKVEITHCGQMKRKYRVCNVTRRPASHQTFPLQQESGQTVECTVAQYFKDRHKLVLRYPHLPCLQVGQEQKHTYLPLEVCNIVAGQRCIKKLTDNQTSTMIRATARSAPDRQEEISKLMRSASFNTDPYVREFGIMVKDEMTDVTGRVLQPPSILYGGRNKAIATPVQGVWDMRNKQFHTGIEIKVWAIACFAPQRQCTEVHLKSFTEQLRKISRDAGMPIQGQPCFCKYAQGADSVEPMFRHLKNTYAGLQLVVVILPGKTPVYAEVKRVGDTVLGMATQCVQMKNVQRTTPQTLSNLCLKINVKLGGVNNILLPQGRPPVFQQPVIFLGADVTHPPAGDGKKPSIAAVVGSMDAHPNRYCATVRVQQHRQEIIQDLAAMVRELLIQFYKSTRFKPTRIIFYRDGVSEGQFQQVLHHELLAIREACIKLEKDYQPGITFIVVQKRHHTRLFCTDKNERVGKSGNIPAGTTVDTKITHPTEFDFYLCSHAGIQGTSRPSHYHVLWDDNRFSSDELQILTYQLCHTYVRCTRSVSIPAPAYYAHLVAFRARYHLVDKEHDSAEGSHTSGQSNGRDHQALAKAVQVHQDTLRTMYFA

Sequence “UGAGGUAGUAGGUUGUGUGGUU / UAACCACACUGUUGACUACCUCAUUCCUGGUUUUUGGCCUCCACAUCAUCUUUUUUCUUAAUAUUUCAUCCCCCCCCCCCCCCCC [let-7b guide / POLR2D RNA with let-7b WT and AUF1 site]” has a binding signal (% decrease of binding rate) of 78.

In the case of “UGAGGUAGUAGGUUGUGUGGUU / UAACCACACUGUUGACUACCUCACCCCCCCCCCCCCCCC [let-7b guide / POLR2D RNA with let-7b WT]”, the binding signal (% decrease of binding rate) is reported as 42.
